Numbered stars: 1 amine (or outer) side, 2 acyl side, 3 side chain; on linkers, the order of the positions; unused ones are H or OH. Square brackets hold non-standard residues; d marks the D form. Ends that are not written are not given here. * marks the point of attachment. (AUD)6 = six aminoundecanoic acid units between the two peptides, O=C(CCCCCCCCCCNC(=O)CCCCCCCCCCNC(=O)CCCCCCCCCCN[*:1])NCCCCCCCCCCC(=O)NCCCCCCCCCCC(=O)NCCCCCCCCCCC(=O)[*:2]; Biotin = O=C1N[C@H]2[C@H](CS[C@H]2CCCCC(=O)*)N1; P10 = 10 unit polyethylene glycol polymer; Myristoyl = CCCCCCCCCCCCCC(=O)*; Lauroyl = CCCCCCCCCCCC(=O)*; linker = not defined here; (MP)2 = not defined here; Aun = NCCCCCCCCCCC(=O)O; AEEA = NCCOCCOCC(=O)O
B1: SEQ ID NO 150 (peptide)
peptide: SWWGFWNGSAAPVWSRGSSG[code s][code s]GGVGGWALFETLRGKEV[code s][code r]GSSGK(Biotin)-NH2
modifications: not fully specified; printed as SWWGFWNGSAAPVWSR-GSSG-ssGGVGGWALFETLRGKEVsr-GSSGK-B-NH2
B2: SEQ ID NO 149 (peptide)
peptide: [code s][code s]GGVGGWALFETLRGKEV[code s][code r][P10]YFRAFRKFVKPFKRAFKGSSGK(Biotin)-NH2
modifications: not fully specified; printed as ssGGVGGWALFETLRGKEVsr-P10-YFRAFRKFVKPFKRAFK-GSSGK-B-NH2
B3: SEQ ID NO 147 (peptide)
peptide: YFRAFRKFVKPFKRAFK[(MP)2][code s][code s]GGVGGWALFETLRGKEV[code s][code r]GSSGK(Biotin)-NH2
modifications: not fully specified; printed as YFRAFRKFVKPFKRAFK-(MP)2-ssGGVGGWALFETLRGKEVsr-GSSGK-B-NH2; reading uncertain
B4: SEQ ID NO 153 (peptide)
peptide: [code s][code s]GGVGGWALFETLRGKEV[code s][code r][P10]SWWGFWNGSAAPVWSRGSSGK(Biotin)-NH2
modifications: not fully specified; printed as ssGGVGGWALFETLRGKEVsr-P10-SWWGFWNGSAAPVWSR-GSSGK-B-NH2

Experiments:
[1] = Vancomycin loading onto titanium bead (HPLC of HCl eluate); conditions: mixture with vancomycin, 30 mins 20° C., washed with PBS
Experimental: The experimental procedure used for the embodiments described above was as follows. […] All three components were mixed and then applied to the metal bead. […] All three components were mixed and then applied to the metal bead. […] The mixtures were applied to the metal beads and incubated for 30 mins at 20° C. with 700 rpm shaking. The beads were washed three times with 350 ul PBS. Beads were analyzed as follows: 200 ul of 100 mM HCl was added to each bead and incubated for 30 mins at 20° C. with 1,000 rpm shaking. The eluate from each bead was analyzed by HPLC using Phenomenex Luna 3 um column, 50×4.60 mm. Output was compared to a standard curve for vancomycin to determine the amount of vancomycin retained onto the metal bead.

[2] = Critical micelle concentration (methyl orange assay); assay type: physicochemical; conditions: pH 7 PBS, A484
Experimental: Formation of a composition of the invention, and evidence of macromolecular network formation, may be monitored or quantified by any means known in the art. In this example, macromolecular formation was detected using a standard assay for determining critical micelle concentration (“CMC”). In this assay, a solution containing the composition of the invention (in a range of concentrations in pH 7 phosphate buffered saline (“PBS”)) was mixed with a solution of methyl orange (0.04 mM in PBS), and the absorbance of the mixture was measured at 484 nm (A484). CMC is the concentration at which a sharp decrease in absorbance at A484 is observed, a change in the optical properties of methyl orange when trapped in a hydrophobic phase, such as caused by self-association as a macromolecular network (Table 7, “CMC”). Also included in this assay were an assay control peptide having an amino acid sequence of SEQ ID NO:122 (Table 7, “Control”), and compound 119 (a PEGylated peptide, the peptide having an amino acid sequence of SEQ ID NO:122, as described in more detail in Example 6 herein).

[3] = assay type: binding; conditions: 18 hour incubation in 10% BSA+10 mM guanidinium chloride; FIG. 1
Excerpt: In this example, illustrated are unexpected beneficial properties of the composition of the invention, including but not limited to, one or more improved biophysical properties. Such one or more unexpected beneficial properties of a composition of the invention may comprise an increase in stability. An increase in stability may comprise any one or more of resistance to chemical denaturation, resistance to proteolytic degradation, improved retention to a substrate (e.g., resistance to being competed off a substrate to which it is bound, such as by proteins or other biomolecules found in body tissues). Thus, to ascertain a beneficial property of a composition of the invention, it is compared to the properties of a component of the composition-namely, a substrate-binding peptide by itself (e.g., without fatty acid covalently coupled thereto). An assay was developed that, from our direct comparisons (see, e.g., discussion of FIG. 2 below, and Example 7 herein), mimicked the effect of incubation of substrate-binding peptide with human plasma on stability of binding of a substrate-binding peptide to its substrate. The assay utilized incubations in the presence of 10% bovine serum album (BSA) with 10 mM guanidinium chloride. The high BSA concentration mimics the elevated albumin content of human plasma, and the guanidinium chloride is used to compete with any charged interactions involved in binding of the substrate-binding peptide to its substrate.
In this assay, two immunoassay plates were prepared for a “side-by-side” comparison of binding of a test sample (substrate-binding peptide or composition of the invention) to its substrate with or without the presence of 10% BSA with 10 mM guanidinium chloride. The wells of each 96-well polypropylene plate were incubated with 350 μl BSA 1% in PBS for 30 minutes at 20° C. with 500 rpm shaking. To each well was added one acetone-cleaned 3/32″ 316LVM stainless steel bead, followed by addition of dilutions in PBS of the test sample in a range of concentrations starting from 10 μM. Final volume in each well was 200 μl. The plates were incubated for 1 hour at 20° C. with 500 rpm shaking to allow for the binding to occur. The beads were washed 3 times with 250 μl PBS using a plate washer. […]
In the immunoassay for detecting binding without the presence of 10% BSA with 10 mM guanidinium chloride, added to each well was 200 μl of streptavidin AP (AP is alkaline phosphatase) at 1/200 in TBS+1% BSA. […] When color has developed, each well was read at OD405 nm in endpoint mode using a plate reader. […] When color has developed, the wells were read at OD405 nm in endpoint mode using a plate reader. […]

GDF-7 (R&D SYSTEMS) = target: T1, GDF-7 (R&D SYSTEMS); experiment: GDF-7 capture on peptide-coated sutures; anti-GDF-7 antibody/AP, pNPP read-out; relative EC50; lower limit told of the whole group
T1 sequence (Q7Z4P5 322-450, species assumed, looked up): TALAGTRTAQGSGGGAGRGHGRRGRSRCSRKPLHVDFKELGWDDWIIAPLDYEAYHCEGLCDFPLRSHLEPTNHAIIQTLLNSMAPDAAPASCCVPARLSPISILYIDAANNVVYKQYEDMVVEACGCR

Row | Molecule | CMC [2] | EC50 (GDF-7 (R&D SYSTEMS)) [nM] | also measured
1 | MA-AHx-SSCLIDIYGVCHNFDAY-miniPeg-miniPeg-YFRAFRKFVKPFKRAFKGSSK(Biotin) [SEQ ID NO: 165] | – | – | Vancomycin Load [1]: 1,700 pmol/cm2
2 | MYR-SEQ ID NO: 122 (Myristoyl-SSHRTNHKKNNPKKKNKTRGSSGK) [Compound 125] | 0.123 µM | – | –
3 | [MYR]2-K-linker-SEQ ID NO: 122 (SSHRTNHKKNNPKKKNKTRGSSGK; also: lysine bearing two myristoyl groups, place not given here, linker, place and nature not given here) [Compound 128] | 0.123 µM | – | –
4 | 120: amino acid sequence YWAWAYAW (SEQ ID NO:129) covalently coupled to a peptide having the amino acid sequence of SEQ ID NO:122 (YWAWAYAWSSHRTNHKKNNPKKKNKTRGSSGK) [Compound 120] | – | – | retention of binding compared to substrate-binding peptide alone (SEQ ID NO:122) [3]: failed to promote retention
5 | AUD-AUD-AUD-AUD-SEQ ID NO:122 ([Aun][Aun][Aun][Aun]SSHRTNHKKNNPKKKNKTRGSSGK) [Compound 122] | 0.123 µM | – | retention of binding compared to substrate-binding peptide alone (SEQ ID NO:122) [3]: significantly improved retention
6 | RRRRRRR-PSSHRTNHKKNNPKKKNKTRGP-RRRRRRR-K(biotin) [SEQ ID NO: 156] | – | – | Vancomycin Load [1]: <10 pmol/cm2
7 | MYR-linker-SEQ ID NO: 122 ({Myristoyl-linker}-SSHRTNHKKNNPKKKNKTRGSSGK; reading uncertain) [Compound 127] | 0.123 µM | – | –
8 | MA-Ahx-SSCLIDIYGVCHNFDAY-miniPeg-miniPeg-HKKNNPKKKNKTRGSSK(Biotin) [SEQ ID NO: 164] | – | – | Vancomycin Load [1]: 278 pmol/cm2
9 | Pyrene-butyric-SSCLIDIYGVCHNFDAY-miniPeg-miniPeg-HKKNNPKKKNKTRGSS-K(Biotin) [SEQ ID NO: 166] | – | – | Vancomycin Load [1]: 173 pmol/cm2
10 | AUD-AUD-K-AUD-AUD-AUD-AUD-SEQ ID NO: 122 ([Aun][Aun]K[Aun][Aun][Aun][Aun]SSHRTNHKKNNPKKKNKTRGSSGK) [Compound 123] | 0.04 µM | – | retention of binding compared to substrate-binding peptide alone (SEQ ID NO:122) [3]: significantly improved retention
11 | SSSCLIDMYGVCHNFDGAYDSSRG-miniPeg-miniPeg-SSHRTNHKKNNPKKKNKTRGSSGK (SSSCLIDMYGVCHNFDGAYDSSRG[AEEA][AEEA]SSHRTNHKKNNPKKKNKTRGSSGK; not fully specified (bridges); printed as SSSCLIDMYGVCHNFDGAYDSSRG-miniPeg-miniPeg-SSHRTNHKKNNPKKKNKTRGSSGK; cysteine pairing not given here) [SEQ ID NO: 163] | – | – | Vancomycin Load [1]: 54 pmol/cm2
12 | SSHRTNHKKNNPKKKNKTRGSSGK [SEQ ID NO:122, assay control peptide] | >>10 μM | – | –
13 | LAU-SEQ ID NO: 122 (Lauroyl-SSHRTNHKKNNPKKKNKTRGSSGK) [Compound 126] | 0.37 µM | – | –
14 | PALM-PALM-PALM-linker-SEQ ID NO: 122 (SSHRTNHKKNNPKKKNKTRGSSGK; also: three palmitoyl groups, place not given here, linker, place and nature not given here) [Compound 129] | 0.123 µM | – | –
15 | [code s][code s]GGVGGWALFETLRGKEV[code s][code r][(AUD)6]SWWGFWNGSAAPVWSRGSSGK(Biotin)-NH2 (not fully specified) [SEQ ID NO 154] | – | > 20 | –
16 | B1 | – | > 20 | –
17 | [code s][code s]GGVGGWALFETLRGKEV[code s][code r][(MP)2]SWWGFWNGSAAPVWSRGSSGK(Biotin)-NH2 (not fully specified; reading uncertain) [SEQ ID NO 152] | – | > 20 | –
18 | [code s][code s]GGVGGWALFETLRGKEV[code s][code r]GSSGYFRAFRKFVKPFKRAFKGSSGK(Biotin)-NH2 (not fully specified) [SEQ ID NO 155] | – | > 20 | –
19 | B2 | – | > 20 | –
20 | [code s][code s]GGVGGWALFETLRGKEV[code s][code r][(MP)2]YFRAFRKFVKPFKRAFKGSSGK(Biotin)-NH2 (not fully specified; reading uncertain) [SEQ ID NO 148] | – | > 20 | –
21 | B3 | – | > 20 | –
22 | B4 | – | > 20 | –

— patent publication US20090246248A1, “COATING COMPOSITIONS HAVING IMPROVED PERFORMANCE” (priority 2008, published 2009)
